The nature of this data set: label from the status in PepcDB records.
Turning to “MRLYVMLLSLSLIWGFSFVFIEHLLGIVGVWGTVVVRCFAGAIILLPILLMRRKLFYRPAPWKALMIVGIFNAGLPWGLIALSQTEIYSSTAAVLNALTPLFTGLIGFLLYSNALSRQQWGGIVLGFSGVVVLTGFQLQLLAPEHFVGVGTMILATICYGFASQYVKRHLHDTDVVLITTFSLLFGGLVGLIGMWITDSLHVVRVPLTIDWLSLISIIGLGCLGSGMAHLLYYDLMKKGGPEFATTVTYLIPMTAIIWGKLFLDELITKNIVIGMLMILMGVYFTSRKRNVCSKANEDSNKGELA”, the protein production result is “failed”.
Then “MRMIIAFLLGCLGMFLTTGCAFVSVPLMSAPQPLAEQVLEGEGTKKILIVDISGAIGDQAKGGGLLSRGTPSTVSLVREVLLKAERDPKVAGLILRINSPGGTVTASDIIRHDLLAFKERRNLPVSACIMGIGASGGYYVATAADGITAHPTALTGSIGVLLMTFNVEGLLGKVGVEEKTIKSGGKKDLLSPFRRATPEEERLVQGVIDQFHGRFVDVVQARPGNRLSRHDLLTLADGRIFSAADALAAGLIDRIGYLDDVIASLRDRIGDPDARVVTYFRPGSYQGSIYAESAAEPSMADLLGGFDMTGGGQFMYLWRPW”, with “failed”; and “MRMRSGTAVAGVAALAVAGMALTAAFEPVWAHGPTRQKVRESIEINAAPAKVWAVIGNFQDMSWLPPVTKTEGEKGNEIGATRRLTLTGGATVDEELYKFDAAAMTYSYRITAVDVKVLPVTNYSSTLTVTPSADGKGATLEWAGAFYRGFPNNDPPPELSDEAAKTAVSGLYKAGLEALKKKIESGS”, with “failed”; and “MRNCIFYSLVLALLFLIGSCKDSDDNKTTGATYDPNQPVTVESFMPVEGKLREKVIVKGSNFGTDKSKVKVYFVDEAAERLSTVIGIDNNTLYCLAPRQLPGGNRIKVIVDGKEVTTDGTFKYEQAQNVSTISGSASKDGNDDGDLASAKFKYMWGIAAVGNNTVLAYQRDDPRVRLISVDDNKVTTVHPGFKGGKPAVTKDKQRVYSIGWEGTHTVYVYMKASGWAPTRIGQLGSTFSGKIGAVALDETEEWLYFVDSNKNFGRFNVKTQEVTLIKQLELSGSLGTNPGPYLIYYFVDSNFYMSDQNLSSVYKITPDGECEWFCGSATQKTVQDGLREEALFAQPNGMTVDEDGNFYIVDGFKGYCLRKLDILDGYVSTVAGQVDVASQIDGTPLEATFNYPYDICYDGEGGYWIAEAWGKAIRKYAVE”, with “failed”.
Then “MRNETGGTMVVDLQTDPYNNIHSRHNLSYDLSEGPKPRPKFGNISKTDHDEIFPPDDPIIINSNVTHQRFSSVSASTMSSGPASGEGSPCVMSPWARVSPPWGADFNEDNVLETNGLIGSIVRKEGHIYSLAASGDLLYTGSDSKNIRVWKNLKEHAGFKSSSGLIKAIVIFGDRIFTGHQDGKIRIWKVSKRKPGKHKRVGTLPTFKSMVKSSVNPKHFMEVRRNRNSVKTKHNDAVSSLSLDVELGLLYSSSWDTTIKVWRIADSKCLESIHAHDDAINSVMSGFDDLVFTGSADGTVKVWKRELQGKGTKHTLAQVLLKQENAVTALAVKSQSSIVYCGSSDGLVNYWERSKRSFTGGILKGHKSAVLCLGIAGNLLLSGSADKNICVWRRDPSDKSHQCLSVLTGHMGPVKCLAVEEERACHQGAKASVAEGDRKWIIYSGSLDKSVKVWRVSERMATWKEMDEPAASSERKSSSSPHEGSGAWSSRNVEK”, with “failed”; and “MRNLKDRVLNSLKGNKKDIKISVVVPTYNTELEGLKNLMASIDKQTMNPDEYELVFVDDGSTTDTYERLQEFAETRPNMTVKQIENSGWGSRPRNIATKMAKGEYILYLDHDDTVFPETFERVYNFGKENNLDVVSGKEVRTNGWSWGWKQFSENNPHAEEMGIECLLPMTPHKFYKREFLLENDITFDDGARVLWEDVYFNSKAFIHGAKVGILADYPTYYWIATGANNSSSFGRDPHEKWNQINKLFNFFKDNIKEQRDLDFMLTHWYRSRVLGILGQWLLKNNNERIDIEFNYAKKLAEELIPAYISENLDKNNQVKDYLLRQGDLDSLKKLAQIDAGITALSYVEDAYFKEDKLFFKTSTKMTYEDKEDFFIEKTADRMERILPEEIKSKLPKEFFDYSDDLAEFTYEPSIKGRNSRATWKIDGSTSNVEVVNKKANLYKIEGEMSFSVQINDYILDAADKKQPWDIATRFTGLGYTSHRALTIGKILIKTALINNKTMIVYKNASGLISLDVGSSVRSIVEDSGVKREQILIDKTSGKVTIPLNEIHVFGESLIEGNAELKPVGISDADPINVKAKLIGEANKARVEVLLGDEKLSGEYHLVTNIQGKKDKQQIKITL”, with “failed”.
Then “MRNLLQKCFKWQWLVCLAVGCCFSSCKDDEESTSGYDPNKPIVLTDFYPPEGKLATQVILNGSNFGDSKENVKVFFNDKEASVISVKDDRMLVLAPKRASTIEDPECVVKVQVHEQIEEYKQTFDYYIQTTVTTLVGGSTSAQVNPTGTIPLSEAQFRANIDRCICVDQDKNVFFLVDNDGKFAAFMLNEEADKLISLKSDINALFNSPVLGYNSKDDIVYQFWANRDSHEVYYFDPKTDYAPTTAISSISWDDPNFPNIEGFGVWAAKCNFTMGPDGKMYSRMLGGNLVRIDVENARGENLTNGDLVGTKDGSAYGLVFDPQDENVFYFSNNDKHCIYKYDLRTKECACWAGQEGKSGYLDGPIGQAMFNKPGQMCVDSEGNIILTDTENHCIRKITMSTGYVSTLAGKPQNSGYVNGSAEDAQFKKPLGICIDNDDVMYIGDSENRAIRRLAVELEHHHHHH”, with “not failed”.
Turning to “MRNNLSAYSNIETGEAATELECFPYSVQHNDEGVCLLVRMGPHRILLDCGLADISSIQKSLTPSVKRGNPPSPADLVLVTHAHPDHARGLLALHQAFPNLPIYGSEVTSKLLPLNWLDHNPQEIPQLCHALPLRSPVELQDGLVAEIFPCGHLPGAVAILLTYTTEQRSYKLLYTGDFFLSNSRLVEGLRLEELRGIDLNVLIIEGTYGTSRHPHRRNQENQLAERINRAISDRYSVVLPTPALGLGQELLMLLRSHHHFTGRDLDIWVDGAVAIGCDAYLELLPHLPASVQNFARHQPLFWDERVRPRVRRLQAENRSIVGKSPCIVLTDSTSDLEQYCQPETGPWLILLPEKIDIKVNKKYSAPTTVESYLLAQHSDGPGTTQLIHNLRPQHVVFVHGSPAYLADLTCLEELQNRYHIHSPAAETMVELLIGETFLQPAPPETNYEGELTELGTVITISIPEAITADPRWRQFADTGLIEARWQGEELVLRGLTQRELLNQNSDRNIPPEIDCCGTCRHQRGQRCWNPSSPLYNFRVTLEGHCPAFERLSNGE”, the protein production entry is “failed”.
With “MRNPNDVFHLAIPARDLDEAYDFYVTKLGCKLARRYPDRITLDFFGDQLVCHLSDRWDREVSMYPRHFGITFRDKKHFDNLYKLAKQRGIPFYHDLSRRFEGLIEEHETFFLIDPSNNLLEFKYYFDDRMMY” the entry was “not failed”; with “MRPAHICLAVLVAAVWGVNFTVIEVGLAHFPPLLFSALRFLAAALPAVFFVGRPKVAWKWIVAVGLVLGVAKFGLLFIGMDAGMPAGLSSLVLQIQAVFTALIAFAALGERPTGIRLAGMAVALCGVGLAAVDEGTGGPLGAFALVIGAAVCWGASNVLTRKASPPDPLNFMVWVSTVPVVPLLGLSLLTEGPSADLNALGSLDWQGAGVILYVAWITTVFGFGAWGWLLHRHPASTVAPFSLLVPVFGMSSAALFLGEPIGPMRWGAAALLAGGVALTSLAPGKERSGGPNTLDLRGVGIHEAGR”, “failed”; with “MRPCCHWRPGPSGCHCCAGCGLAAEARRARERRGEAVIGLCGALAGEVRAGRQPGEALLHAAGDSGGLGDAQAAVLAAARFGGDVPGALADAAGQPGAEGLLGLGACWRVAVDRGAGLAAGLDRLEAALRAERDQRAELRAQLAGARSTAVMLAALPVLGLLLGTALGADPLHVVLHTGAGLACLLAGAVLEGAGLWWALRIVRGAEAA”, “failed”.
With “MRPDLSRVPGVLGEIARKRASEVAPYPLPEPPSVPSFKEALLRPGLSVIAEVKRQSPSEGLIREVDPVEAALAYARGGARAVSVLTEPHRFGGSLLDLKRVREAVDLPLLRKDFVVDPFMLEEARAFGASAALLIVALLGELTGAYLEEARRLGLEALVEVHTERELEIALEAGAEVLGINNRDLATLHINLETAPRLGRLARKRGFGGVLVAESGYSRKEELKALEGLFDAVLIGTSLMRAPDLEAALRELVG” the entry was “not failed”; with “MRPETLAVIQKQLTKIKAAQRNMTDNEVLRSMDEIMFCFENCYTEDETFTHIAQMFPSYVLKIVKSFFQISKAVTDEESREAYLTDAEECASVRRSQARDTSEEAKRSQDTLMGRLILIFMRPETREIIEMQLLPAMKLVKERLEREVEKQSMDEFMFCFENCYTEKETEMHVTRKFPSLKQSDVGIGFQTFIGLIDKESSREAYLKDAEDCANVRRIEARQGEASTSHKCEPNCNKH”, “failed”.
Turning to “MRPLARLRGRRVVPQRSAGELDAMAAAGAVVAAALRAIRAAAAPGTSSLSLDEIAESVIRESGATPSFLGYHGYPASICASINDRVVHGIPSTAEVLAPGDLVSIDCGAVLDGWHGDAAITFGVGALSDADEALSEATRESLQAGIAAMVVGNRLTDVAHAIETGTRAAELRYGRSFGIVAGYGGHGIGRQMHMDPFLPNEGAPGRGPLLAAGSVLAIEPMLTLGTTKTVVLDDKWTVTTADGSRAAHWEHTVAVTDDGPRILTLG”, the protein production result was “failed”.
With “MRPVDEQWIEILRIQALCARYCLTIDTQDGEGWAGCFTEDGAFEFDGWVIRGRPALREYADAHARVVRGRHLTTDLLYEVDGDVATGRSASVVTLATAAGYKILGSGEYQDRLIKQDGQWRIAYRRLRNDRLVSDPSVAVNVADADVAAVVGHLLAAARRLGTQMSDT” the entry was “not failed”; with “MRQPFQVLVIPFIKTEANYQFGVLHRTDADVWQFVAGGGEDEEAISETAKRESIEELNLDVDVKMYSLDSHASIPNFHFSFNKPYVVPEYCFAIDLTSCSYQVTLSLEHSELRWVSYESAIQLLEWDSNKTALYELNERLKNNDMKAM”, “not failed”.
With “MRQRDDSKRIAFLEATVREVADHGFSATSVGKIAKAAGLSPATLYIYYEDKEQLLLATFYYVSDQVIDAALDSFSRGKDLREGLRRQWHTLFRIGLERPELFRYHETFTHSAWMTPEIQARNESRAANLLNAVDQGKQSGLIKPVPFPLLETFMFRPIYHLVQRCLQGSFEGTDEHIELAFNMAWDAVADRRNT” the entry was “not failed”; with “MRQSYRTPLLASLLVLICAVVLWNAYEWFQGRYLRAFSEHTAMFSGDPLQLPAELAGPGAIRLVHFWDPACPCNVGNQQHLAELIEAYSPRGVEFYAVQKPGSHGQLPATLSRLKHLDSLPGAEQIPASPAVAIWDRNGKLAYFGPYSEGLTCNSSNSFIEPILQALEDNRPVSATHTLAIGCYCPWPA”, “failed”.
With “MRQTQVKSPYCHQSNYKLAIAIITVITGTVVTGATVTTGTAIMNGVKTAGGIMIMATIVAGISVKRMNVAIVKAGAIVTIIVEKAADMDTAIKHIRQWSTMPDATLARLIRPTNQLFNA” the entry was “failed”; with “MRQYNPPAMNIPQEVARRRTFAIISHPDAGKTTLTEKLLLFAGAIQIAGSVKARKASRHASSDWMEIEKQRGISVASSVMQMEYRDCVINLLDTPGHQDFSEDTYRVLTAVDAALMVIDAANGVEPQTIRLLQVCRARNTPIITFINKLDREVREPLELLSEIEGHLGMDTVPFSWPVGMGKAFGGVFDIRRNRMRIFRAGQERRGEDDEFIDGLDNPEIPRRFGAAFAQASGEIELINEAAPAFDREAFLAGKQTPVFFGSAINNFGVQEVLDALVDQAPAPGPRQALEREVRPDEPKFTGVVFKVQANMDPAHRDRVAFVRVSSGRFERGMRLKVARTGKEMRPNNVVSFLSQRRELLDEAYAGDVIGIPNHGVLQLGDVLTEGESLRFTGLPFFAPELFQAVEVKDPLRTKQLRVGLTQLGEEGAIQVFRPEAAGGALLLGAVGQLQFEVVAHRLKTEYGVDARMMPSRYTSARWITSDDPRALRKFMDANAAHIAYDVVDAAAFLITSPAQLRVAEDLYPNVKFHALREHGGKVFGDKA”, “failed”.

(Values after a protein production outcome set (Wang et al. 2014).)
